The values that follow come from a protein production outcome set (Wang et al. 2014).
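Also: failed if final PepcDB status was selected cloned or expressed and not failed if soluble or beyond.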

This data set is described as follows: label from the status in PepcDB records.
In the case of “MKSILSLFSGIGGLCHHGIAAAGLSHKFQVKQFVEISPYSQSRLRHEQPQTPIHSDITTYHCHRGQFDIVAGGLPCQGTSNAGNRQGLDDPRSALWAEQFRIIESDRPAIALIENPTGLLYRGLEQIICDLDSIGYMGEWNCISAQQVGLPHQRKRIFIIAYSNGLFNQVVPAPWSNQIGNHITQVRLSLETRSYQPGISKVASRIPIGVAKNIPGNYDARRAYGLSCSPRQAAVAWKRIDYLCSLLSYQEAS”, the protein production entry is “failed”. On to “SLTMDVPPTIHVPLPPTSYPAFDAAIFTDIGGRKHQEDRFTLCPQLVPGRDDCAFFGVFDGTVGDFASENVKDLVVPQLISSPAWQEVTEMLRSDVPATEVDEKLPQLLDQAVDDMYKNADNELVKMCEQLNKDYASSTSVTAVLAKGFVAVGHLGDSRIAMGVETPNGLNCEFLTVDHKPDMPHEKLRIMRNGGSVEYLHNHNNKPFIRGGDFSFRKSRGEQPMQLQYSRAFGGKDLKMYGLSNQPDVRVVRVTPQHRVMILATDGLWDVMSAAQAVEIAMQARQEGRNPAQALVEMTLAEQQSRNQSADNITAMTVFFKKTD”, for which the protein production result was “not failed”.

For the sequence “MRGEFLSRSADETREYARRFASGLKPGDTVCLTGPLGAGKTEFMRGITEAFGCEEQLSSPTFSLMNIYEGLLRGQPFELHHFDLYRLESEKELDSAGFDDYLSGPFLSVVEWGERFASLDRRYTRRVQLFIAGESQRKIVIT”, the protein production entry is reported as “failed”.

For “MDKSIIQLVDELPSDNITVKVLNALDYVAPGQWQNLVGFDNTIRAVTGETDARVIQKIRDRATSLYNDPQQGYQSAVKLYQTIDKADTAMATAALANKVGEKIGFLSFLSNITPKADVTQSIDLVSKIAIEIIVFCKLNGIPQPNPQEFANSLANNYQDASLIRMVALVCLDGILPLGPDFLSKIQGIISGAESNSITQNPVFLAVNSSLPGSNPTDKLGFINQGFNAVQGWMNNLVTKTGITPQSISSHLGNFIQIADDNLDFVAAFLDQTTNYFEHTGIQSVARRLILKAHTLVKEEIKQETTQPIQDSSSAVKSDTSQYAVSKKIEVWDEEEEDWYQATIEKVQDDQFFINYIGYGSSHNEWVGKDDIRATDYASSDANGYAVGKKVKCWSDEEETWYTATIEKIQGNQYFIHYTGYDSSYDEWVNSDDIS”, the protein production result is “failed”. Next, “MKAKHLTQLLKASFLSCSMIATTLSMAQLPPAPQEKYGDGRVSEFYTWKSAIPAQPGKLLRTEAVHNPYIRLANDSQAIRILYSSTSGKDSKTPIVVSGSIHLPKGNPPKEGWPVVLWAHGTVGLADACAPSWSGRSYRDVQYLNRWLNEGFAVVATDYEGLGVAGPHLLINNPMLAYSILDSGRAALKTKLPLANKFVIVGQSQGGAGAVAASSYSATYAPDLNIKGSIGTGVIYKDPEATPEKNQLKLNPYEVSPSLAYGIYSFLVTQSLYPEIKTEEIFTPEAAPLVEQARNACLTSFMGDIQTAGLSPAQAYKPNPPTSYKKLQEKESNDYGYYPTLKISHPLFIGTGANDRTPDARSQMKLVADACKAGTVVEGHLYHGLGHSETVNASLKDSIPFAKKVIAGEKIQAICKPDLQ”: “failed”; “MDGTEIAVSPRSLHSELMCPICLDMLKNTMTTKECLHRFCSDCIVTALRSGNKECPTCRKKLVSKRSLRPDPNFDALISKIYPSREEYEAHQDRVLIRLSRLHNQQALSSSIEEGLRMQAMHRAQRVRRPIPGSDQTTTMSGGEGEPGEGEGDGEDVSSDSAPDSAPGPAPKRPRGGGAGGSSVGTGGGGTGGVGGGAGSEDSGDRGGTLGGGTLGPPSPPGAPSPPEPGGEIELVFRPHPLLVEKGEYCQTRYVKTTGNATVDHLSKYLALRIALERRQQQEAGEPGGPGGGASDTGGPDGCGGEGGGAGGGDGPEEPALPSLEGVSEKQYTIYIAPGGGAFTTLNGSLTLELVNEKFWKVSRPLELCYAPTKDPK”: “failed”. The value for “MTLVLILLALIAFIVLSTTRLKLHPFLALLAAALIAGFAYQVPTAEIVKTVTGGFGSILGYIGIVIVLGTIIGVILERSGAAITMAESVIRLLGERFPTLTMSIIGYLVSIPVFCDSGFVILNSLKNALAARMKISTIAMSVALATGLYATHTFVPPTPGPIAAAGNLGLDASLGLVIVVGLVVAFVTAMAGMWWANRFVGKDIPLVDDGQVVQTEEDFSELRARYGKLPSATQAFAPIFVPILLICLGSVAVFPSKPLGEGVLFACLNFLGQPVIALLVGLALACTLLKGQSKREEFHERVVEGIQSAAPILLITGAGGAFGAMLKITPLGDYLGSTLSALGIGLFMPFVVAAALKTAQGSTTVALVTTSALVAPLLPQLGLDSEMGRVLTVMAIGAGAMTVSHANDSFFWVVTQFSRMTVSTAYRAQTLATLVQGIAGMLAVWLLSLVLL” was “failed”.

Take “MTRVPFTQNYRWHLPLLLLVFCCSFFINNGAIFADIMESRNIITAREMVYDHNWLVPTMNGELRLEKPPLPTWIAAITEMISPDNLPLQRAMAGFAAVMLVLFFYKFATKLTDNRTYALVSSLVLCTSYNIILMGRTATWDIYCHAFMIGAIYYLYLALRQNTCKWTYFIGAGIFMGLSFLGKGPVSFYALLLPFVCAYILYYRKETQMKGKWIALAVMILIGIVLSTWWYAYIYIYHQEMASYVFHKESSSWSNHNVRSWYYYWQFFLETGVWSLLTLTTLLVPFWKKRVESSKEYLFCLSWMLLILFFLSLLPEKKTRYLLPILLPAALTMGHLFVYWIRQAKQKMPQLKDRVLYRINAYLIVVAALALPIALYLFMYREGRMGTGMFVWLVVLFLTVAVWLFRSAFKLQPFSFLMGIVALFAVAELFVMPYIGSFVSNSDPKSISATRENPELQPLPFYHSKDEVLRIELVYEAHKKIGDMDLSNKEEIIKALPFVLISQKPAELLIPDSIRKDLNLRFIDCYDNNRWAKGHKRYDSVFISNVTIVEPIKEQ”: the protein production entry is listed as “failed”. Next, “MCSIGVTALCSPAKFHHRREQSLIFTPTHLRNPNGFQFRWRKSRPFAPRLAQPDNFAPPLPLIRSSTSLLSSKDFVQMLARKAAILLVGSFVFLGFCSSKPALALPTATVVSQAELEDEKMFEKLLENEPENMEAMKAVVYKKMRRGKNEDAVKYVEKLMKLEPHEVEWKLLEALCYETMGELSKAKRLYKDILKEQPLLIRALHGLAMVMHKTHDTSVFDMLIEAMEVARQGNRVTEERNIQVLIGQMHIVEGQFEEGLKIFQQMVNDNPRDFRPYLCQGIVYSLMDKKEEAAQQFEIYWSLVPGEFPQKGFLDDVALAAQAKSRERLQNTFKAKFTQGR”: “failed”; “MSLYDLKPNEKGRIKDIKGDERLSKRLSALGFIEGTEVEVKMMAPLGDPILVNVRGFNIAIRKNDAKNIFLKEAKLEHHHHHH”: “not failed”.

Take “MSLLDFYIIWRGDMLFATVVPIAYFLLYLKNKQVTFVFLKFVMAFVICLYWATYACTFFYSYYDVIGWFKILIIPVFSIYSGFVLHLLKSKKKKVFFLISIVYIIFWCILIFWHCMSSM”: the protein production result is reported as “failed”. The value for “MKKLLTLFCLMLGLSSTQALAAADNPVELIKDGSRQVLDVLKQDNGKNTKQVRQQAEAIAVPLFDFPRMTALAVGLGWRQATPEQRNELTQQFQTLLVRTYSTTMTRFKTAQVSVQPNPVSGANGKDVTVKSSVTLPGNANPVAVDYVLNKGDKGWKIYNVSVEGASLVTVYRNSFNEEIRKNGVDGLIKLLQDKNAAPAPAAASAAKGKGLEHHHHHH” was “failed”. On to “MLSYDLNERLLTAVQSGDFEQALGCIMQGAQASYVSPTCGRTAVGTAAILGDAELLELLLQSCEEPELNVFHQSNTDSLEIERTPEGMEKLEWVDEFENSAENGAGSGEEDSQLYQYYAKTFETTGEFISSQCCVSCREHDPHLYDADVATPLHYAAYWGHEECVRILLEHNAPINVLNNDGYAPLHLGAGFAGVTELLIKHGALVNAKTLSDGKTALHMAIESKCAESARLLLQTNININDTDDDGETPLMAAIACSMLDVAEELVKRGARINIQDKQNHTALQYAVRGRHTQMAKLLLERGARRLASQHLLHLAVESNVKELVELLLQYGESLSVWNLKNFTPIMLAIHRGRHEMLEYLLNVAEEQRKLGLYSDVHDEGLVLFAVQQNFWVKEFSRILRVLLAKSPSARNDFYDSCAPTIVCGLIYCHTPLSRAINLHRLEVAEFLIHEGCNLAQICREHVVNELRSNCTPTRLAFARLLCNAGFQFPHKHRPLPKDWPPARLEFEREMCLLGTQPRSLQSLARLEIRRSLLRCLQTRPEVQERYLPTQERSSLGRIVDEFAIPATLKRYLSDFDELPPVRGMEPVDIPVVKWTESWD”, for which the protein production result is “failed”. For the sequence “GIHMGKIKRRAITEHEKRALRHYFFQLQNRSGQQDLIEWFREKFGKDISQPSVSQILSSKYSYLDNTVEKPWDVKRNRPPKYPLLEAALFEWQVQQGDDATLSGETIKRAAAILWHKIPEYQDQPVPNFSNGWLEGFRKRHILH”, the protein production entry is “not failed”.

Turning to “MILAILQARMSSTRLPGKVLMPLQRQPMIVRQIERVARSKRIDKLVVATSDRPEDDAIEAAVRREGIAVFRGSLDNVQQRFIGALDAHPADHVVRLTADCPLADPTLIDATIDLCLSKGADYVSNTPEGHAHPKGTDVEVMTAAALRRAAAEATTKEAFEHVTWDLWNQPQRWTCAWLPCFPDQGAVRWTVDRPDDYAFVAAVYDALYPANRAFTSDDIRAFVAGRPDLQDYGGDRRALEHHHHHH”, the protein production entry is “failed”.

For “MNNRDLLLGIFVMIIWGLNFSVIKLGVSEIDPLLLTALRFSFAVIPAVFFVKRPQVKWRYLMGYGLVFAIGVWGMGSWSIQAGLSAGMASVLLQMNVVISLLVGYFVLKETVAPIKVVGSVVAILGLALSVSVTDGSVTTLGLVFILIAALSWSITSILVKKAGTKEIFAFSIWGMLFAPLPLFALAFLRGGPEQLQTLNSLANGSVIFSVLFQAYPVTLFGYWVWNRLLVKYPLSTVAPLTFLVPIFGLLGSAIFYQEQIGLVKALACLLIIVGLIIGLIKTEKLKAYLHQPKSAKQVV”, the protein production entry is on record as “failed”. The value for “MKNKTIISKQNLVLIVIMVGATLTDQLSKIWITSNLQLGESIEIIPSFFKITYAQNTGAAWSILEGQMTFFYVITLVALILLGWYFYRLKDYQIIQKIGVALMVSGTLGNFIDRLLFQYVRDSLDFHILGYNFPIFNVADVLLICGVLFIIIDEVLKSFGVSYKKM” was “failed”; that for “MADSTAMADAIWFGGPIVTIDAHTPSARAVAVRDGRIMAVGREHAVLRYRGPDTRMHDLRGATLLPGFVDAHSHVSTVGLEHHHHHH” was “failed”.

As for “MSLKIRDAYTIVTCPGRNFVTLKIVTESGTHGIGDATLNGREMAVAAYLDEHVVPALIGRDAGRIEDTWQYLYRGAYWRRGPVTMTAIAAVDMALWDIKAKAAGMPLYQLLGGKSRERVMTYAHCTGQTIEDCLGEVARHVELGYRAVRVQSGVPGIETTYGVAKTPGERYEPADSSLPAEHVWSTEKYLNHAPKLFAAVRERFGDDLHVLHDVHHRLTPIEAARLGKAVEPYHLFWLEDCVPAENQESLRLIREHTTTPLAIGEVFNSIHDCRELIQNQWIDYIRMPLTHGGGITAMRRVADLASLYHVRTGFHGPTDLSPVCLGAAIHFDTWVPNFGIQEHMPHTDETDAVFPHDYRFEDGHFLAGESPGHGVDIDEELAAKYPYERASLPVNRLEDGTLWHWEGHHHHHH”, the protein production entry was “not failed”. Next, “MNKRVVKVEYIFMAFALFFGVLFAVINAPFQDPDEPIHFYRAYQISTGQMFEQKNNSGIGGYLPQNLIKTSENLSEDIKAKSNKKQDINKIKYYLNLPLNKNKVAFNDFRSATIYSDIVYIPQSIGINLAKIFRASALYMMYFGRIANLICWTIIVFFSVKLIPFKKNLMAFLALTPMNLYQAASLSADAMTNSMAFLSIALVLRYAFGEEEAKLTKRQIVTMIIAFTLLAFSKRIYFVMCILFFIIPIKKFNSKKDYIGTFVIMLGACLMSLVTVSVISKILAIKVSAGSYTPGQMEFVLSHPITYIHILLRTFHFKMSFYAISFIGVFGWLDTRLPLNLYLFYGVALVLIALFEHTLIEKNKDRIIMFIVFIINVGLIMSALYVSWTPKAANIIEGIQGRYFIPIIPLLGCFIGVKANKSRNVYSKVVLAISTFTILTYSVLQLLLRFYGIRIL”: “failed”; “ISKASATRHSQLVTHACRLIETSDPVPSLGQLSARLAVSPFHLHRLFKAETGV”: “failed”.
